The values below come from PMC12445000, “Domain-Specific DNA Binding Activities of BRCA1 Reveal Substrate Preferences for Homologous Recombination and Telomere Regulation”.

In one data set the target is BRCA1 DBD1 (human, UniProt P38398 330-554). In words: BLI; 150 mM KCl; BLI (BLItz, SAX sensors, immobilized biotin-DNA) in Buffer H: 20 mM HEPES pH 7.5, 150 mM KCl, 5 mM TCEP, 5% glycerol, 25 C; steady-state 1:1 fit; errors 95% CI, n=3. As to conditions: protein: recombinant, tags: Ni-NTA purified (details not given). On the technique in general: Biolayer interferometry detects binding as a change in optical thickness at a sensor tip.
BRCA1 DBD1, sequence (P38398 330-554): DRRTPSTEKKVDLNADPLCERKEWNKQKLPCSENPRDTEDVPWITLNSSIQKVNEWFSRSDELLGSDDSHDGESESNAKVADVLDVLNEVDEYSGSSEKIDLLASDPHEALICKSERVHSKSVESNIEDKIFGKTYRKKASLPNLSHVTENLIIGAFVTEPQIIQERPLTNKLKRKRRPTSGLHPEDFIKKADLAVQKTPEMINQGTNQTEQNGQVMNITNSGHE

The next data set addresses BRCA1 DBD2 (human, UniProt P38398 894-1057). Described as above. The settings on record: protein: recombinant, tags: Ni-NTA purified (details not given).
The mark [1] stands for this setting: label: 5' biotin on strand 1, 5' Cy3 on strand 2, blunt.

BRCA1 DBD2, sequence (P38398 894-1057): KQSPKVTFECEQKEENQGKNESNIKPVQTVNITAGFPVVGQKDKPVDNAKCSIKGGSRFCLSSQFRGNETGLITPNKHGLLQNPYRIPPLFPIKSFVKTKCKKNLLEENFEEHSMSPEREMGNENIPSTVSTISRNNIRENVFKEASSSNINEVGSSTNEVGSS

The Kd is the equilibrium constant for the complex coming apart. With TTAGGGTTAGGGTTAGGGTTAGGG (structured_DNA) [BioG4Telo (G4)], the Kd with BRCA1 DBD1 (label: 5' biotin, G4) was found to be 67.2 ± 12.5 nM; in the data set with BRCA1 DBD2 (label: 5' biotin, G4) it was 34.7 ± 16.1 nM.

B1: Bioss60R (ssDNA) (ssDNA)
DNA: CCATGGCTCCTGAGCTAGCTGCAGTAGCCTAAAGGATGAAACTAGGATCTTATGCTCCAT
As for B1, the Kd with BRCA1 DBD1 (label: 5' biotin) is 68.4 ± 33.8 nM; with BRCA1 DBD2 (label: 5' biotin), 40.8 ± 3.7 nM.

B2: Biods60R (dsDNA) (dsDNA)
DNA 1: CCATGGCTCCTGAGCTAGCTGCAGTAGCCTAAAGGATGAAACTAGGATCTTATGCTCCAT
DNA 2: ATGGAGCATAAGATCCTAGTTTCATCCTTTAGGCTACTGCAGCTAGCTCAGGAGCCATGG
B2: the Kd stood at 35.5 ± 9 nM with BRCA1 DBD1 (setting [1]) and 44.6 ± 6 nM with BRCA1 DBD2 (setting [1]).
